Data reported in article PMC3835729.

Tested on: Nc1ncnc2c1ncn2[C@@H]1O[C@H](COP(=O)(O)NCCc2c[nH]c3ccccc23)[C@@H](O)[C@H]1O
Experiment: purified protein
Settings: 20 mM HEPES, 1 mM MgCl2, pH 7.2, 25 °C

Substance | Km [µM] | kcat [s⁻¹] | kcat/Km [M⁻¹ s⁻¹]
human histidine triad nucleotide binding protein 1 (hHint1) (Homo sapiens) | 0.13 ± 0.02 | 2.1 ± 0.1 | 1.5e+07 ± 3e+06
human histidine triad nucleotide binding protein 1 (hHint1) (Homo sapiens; H51A) | 1.8 ± 0.2 | 0.53 ± 0.02 | 300000 ± 40000
human histidine triad nucleotide binding protein 1 (hHint1) (Homo sapiens; H114A) | 0.27 ± 0.05 | – | –
